Data taken from patent US20260248877A1 (Universite de Rennes, priority 2021, published 2026).
Where “and” joins values, the source holds several entries; their conditions need not be identical. Identical values can stand only once. Entries after “also recorded” stand apart in the source; their conditions may differ.

Legend:
[1] = Determination of the aggregative character of the peptides by sedimentation; assay type: physicochemical; details: for % sedimentation: 800 μM peptide, sedimentable peptide after polymerization as percentage of total concentration (16p and 9tp: 288 μM per FIG. 3 legend); for aggregative character (in words): sedimentation, Garnier-Delamarche representation
Protocol: (§1) After thawing, a pre-dilution in milli Q H2O filtered through 0.2 μm was carried out in order to obtain a solution at a concentration close to the working concentration, greater than 1.25 times. This stock solution was left to incubate for 1 hour in a water bath at 25° C., and was then assayed spectrophotometrically and adjusted to the final working concentration of 1.25 times. The polymerization was initiated by adding ¼ of the volume of 5× fibrillation buffer (50 mM MOPS, 750 mM NaCl, pH=7.2) for a final concentration of 1× fibrillation buffer (10 mM MOPS, 150 mM NaCl, PH=7.2). The samples were left to incubate for 1.5-2 hours at 25° C. in a water bath. The study of the polymerization by fluorimetry was carried out under the same conditions, except that the 5× polymerization buffer was supplemented with Thioflavin T (ThT) at 100 μM in order to be able to observe the fluorescence. • (a) Determination of the Aggregative Character of the Peptides. Once polymerized, the samples were ultracentrifuged at 100,000 g for 5 minutes at 25° C. (Beckman TL100, rotor TL-A100). The supernatants of each sample were then collected. An assay at 280 nm in triplicate of each supernatant was then carried out in the presence of 1% SDS. The concentration of the supernatant was determined using the Beer-Lambert law A=ε×1×C; ε (peptides)=1450 M^−1cm^−1. The concentration of sedimentable species in the pellet was then deduced by the difference: “total concentration of the sample—concentration of free peptide present in the supernatant”. • (b) Determination of the Amyloidogenic Character of the Peptides. Once the peptides have polymerized as previously indicated, 40 μL of peptides polymerized at a concentration of 400 μM and 800 μM were diluted in 360 μL of Thioflavin T (10 μM ThT, 1×MOPS) in a thermostatically controlled tank of 0.2×1 cm, to a final volume of 400 μL. The fluorescence of the sample was then measured immediately after dilution by recording a fluorescence spectrum (470 nm to 600 nm) at an excitation wavelength of 450 nm (Perkin Elmer LS 55, PM 750, slit10).
(§2) After prediction of their amyloidogenic character by bioinformatics, all the peptides were studied using biochemical techniques, namely sedimentation and fluorescence/ThT. The biochemical experiments were carried out at two peptide concentrations: 400 μM and 800 μM. Only the results obtained at 800 μM are presented. At this concentration, in sedimentation, the amount of sedimentable peptide after polymerization was measured and expressed as a percentage as a function of the total concentration. This value corresponds to the aggregative character of the peptides. On the other hand, the fluorescence test was used to determine their amyloidogenic character, the fluorescence value given corresponds to a normalization with respect to 1p, considering that its fluorescence is 100% (Table 4).

[2] = Determination of the amyloidogenic character of the peptides by Thioflavin T fluorescence; assay type: physicochemical; details: for % fluorescence: 800 μM peptide, ThT fluorescence normalized to 1p = 100% (16p and 9tp: 288 μM per FIG. 3 legend); for amyloidogenic character (in words): ThT fluorescence, Garnier-Delamarche representation
Protocol: as §1, §2

[3] = test system: cells of the neuroblastoma line SH-SY5Y; assay: Growth of SH-SY5Y neuroblastoma cells (images); assay type: cell-based; details: 100 μM, 24 hours, 1×DMEM medium, 8% serum
Protocol: The effects of three hexapeptides classified as “therapeutic” (1tp, 4tp, 6tp) and of two peptides classified as “amyloid” (7tp and 1p) on the growth of cells of the neuroblastoma line SH-SY5Y were studied after 24 hours of treatment in the presence of a hexapeptide at a concentration of 100 μM in 1×DMEM medium, 8% serum. The results obtained are presented on FIG. 10(A).

[4] = Solubility of peptides in aqueous medium; assay type: physicochemical; details: could not be tested at 800 μM
Protocol: The PHIF6 peptide (Ac-VQIVYK-NH2) as well as the derived hexapeptides were produced by Proteogenix® in an N-acetylated and C-amidated form and supplied in a lyophilized form. They are acetylated and amidated in order to better mimic the original protein. They were resuspended in milli Q water and filtered through 0.2 μm to obtain a concentration close to 5 mg/mL. After being vortexed for 15 minutes, the peptide solution was sonicated for 15 minutes at 35° C. in a sonicator water bath (Advantage-Lab AL04-04) then ultracentrifuged (Beckman TL100) at 100,000 g for 10 minutes at 20° C. The pellet containing the residual aggregates was discarded. The concentration of the supernatant was determined by measuring UV absorption at 280 nm using a molar extinction coefficient of 1450 M^−1cm^−1 in 1% SDS.

[5] = target: T1, PHF6 peptide (VQIVYK, 1p) (Homo sapiens, UniProt P10636); assay: Effects of the derived peptides on VQIVYK polymerization by spectrofluorimetry (ThT kinetics); assay type: biochemical; details: [1p]=155 μM, [selected peptide]=310 μM; for inhibitory effect on 1p (PHF6) polymerization (in words): thresholds 50% rate, 100% fluorescence intensity; for fluorescence intensity (plateau / at 100 minutes) of 1p in the presence of peptide, % of 1p alone / maximum polymerization rate of 1p in the presence of peptide, % of 1p alone: [ThT]=32 μM
T1 construct: The polymerization of VQIVYK was initiated by adding ¼ of the volume of fibrillation buffer 5×

| Substance | % sedimentation [1] | % fluorescence [2] | aggregative character (in words) [1] | amyloidogenic character (in words) [2] | other results |
| --- | --- | --- | --- | --- | --- |
| VKVYIQ (Ac-VKVYIQ-NH2) [11p] | 6% | 25% |  |  |  |
| Ac-VKIQYV-NH2 [4tp, VKIQYV] |  |  |  |  | effect on cell growth (number and appearance of cells) [3]: did not seem to have any effect |
| VQVKYI (Ac-VQVKYI-NH2) [21p] | 33% | 19.9% | poorly aggregative | amyloidogenic |  |
| VVQKYI (Ac-VVQKYI-NH2) [6p] | 14% | 0.2% | weakly aggregative; also recorded: more aggregative than the 10 selected hexapeptides | weakly amyloidogenic; also recorded: very poorly amyloidogenic |  |
| Ac-YQVKIV-NH2 [16p, YQVKIV] |  |  |  |  | solubility in aqueous medium [4]: low solubility |
| KVQYVI (Ac-KVQYVI-NH2) [14p] | 1% | 4.4% | weakly aggregative | weakly amyloidogenic | category of polymerization kinetics of 1p in the presence of peptide [5]: generally follow the kinetics of 1p alone; inhibitory effect on 1p (PHF6) polymerization (in words) [5]: without any inhibitory effect |
| KYVIQV (Ac-KYVIQV-NH2) [15p] | 71% | 3.9% |  |  |  |
| Ac-IQVVYK-NH2 [7tp, IQVVYK] |  |  |  |  | effect on cell growth (number and appearance of cells) [3]: the number of cells seemed to strongly decrease |
| VQIKYV (Ac-VQIKYV-NH2) [0tp] | 0% | 10.7% |  |  |  |
| IKQVYV (Ac-IKQVYV-NH2) [5p] | 5% | 1.1% | weakly aggregative | weakly amyloidogenic | category of polymerization kinetics of 1p in the presence of peptide [5]: generally follow the kinetics of 1p alone; inhibitory effect on 1p (PHF6) polymerization (in words) [5]: marked inhibitory effect; also recorded: with a weak inhibitory effect |
| IYVQKV (Ac-IYVQKV-NH2) [9p] | 1% | 2.1% | weakly aggregative | weakly amyloidogenic | category of polymerization kinetics of 1p in the presence of peptide [5]: generally follow the kinetics of 1p alone; inhibitory effect on 1p (PHF6) polymerization (in words) [5]: without any inhibitory effect |
| QKYIVV (Ac-QKYIVV-NH2) [8p] | 0% | 1.9% |  |  | category of polymerization kinetics of 1p in the presence of peptide [5]: very high rate and intensity of fluorescence; inhibitory effect on 1p (PHF6) polymerization (in words) [5]: without any inhibitory effect |
| YQVIVK (Ac-YQVIVK-NH2) [17p] | 95% | 2.3% |  |  |  |
| VQVIYK (Ac-VQVIYK-NH2) [12p] | 14% | 82% and 81.6% |  |  |  |
| KYIQVV (Ac-KYIQVV-NH2) [2p] | 67% | 2.8% |  |  |  |
| Ac-VKIVYQ-NH2 [1tp, VKIVYQ] |  |  |  |  | effect on cell growth (number and appearance of cells) [3]: did not seem to have any effect; fluorescence intensity (plateau / at 100 minutes) of 1p in the presence of peptide, % of 1p alone [5]: 23.5%; maximum polymerization rate of 1p in the presence of peptide, % of 1p alone [5]: 12% |

| Substance | % sedimentation [1] | % fluorescence [2] | aggregative character (in words) [1] | amyloidogenic character (in words) [2] | other results |
| --- | --- | --- | --- | --- | --- |
| Ac-YQVVIK-NH2 [9tp, YQVVIK] |  |  |  |  | solubility in aqueous medium [4]: low solubility |
| QVIKYV (Ac-QVIKYV-NH2) [23p] | 5% | 0.8% | weakly aggregative | weakly amyloidogenic | category of polymerization kinetics of 1p in the presence of peptide [5]: very high rate and intensity of fluorescence; fluorescence intensity (plateau / at 100 minutes) of 1p in the presence of peptide, % of 1p alone [5]: 161.7%; maximum polymerization rate of 1p in the presence of peptide, % of 1p alone [5]: 65%; inhibitory effect on 1p (PHF6) polymerization (in words) [5]: non-inhibitory peptide; also recorded: without any inhibitory effect |
| QKVVYI (Ac-QKVVYI-NH2) [18p] | 51% | 6.8% |  |  |  |
| QKVYIV (Ac-QKVYIV-NH2) [19p] | 76% | 0.8% | vice versa | vice versa |  |
| VVIQYK (Ac-VVIQYK-NH2) [2tp] | 58% | 2.9% |  |  |  |
| VKYQVI (Ac-VKYQVI-NH2) [3p] | 18% | 0.2% | more aggregative than the 10 selected hexapeptides | very poorly amyloidogenic |  |
| VQYVIK (Ac-VQYVIK-NH2) [5tp] | 26% | 71.7% | aggregative | amyloidogenic |  |
| VVIKYQ (Ac-VVIKYQ-NH2) [3tp] | 48% | 0.9% |  |  |  |
| VKVIYQ (Ac-VKVIYQ-NH2) [7p] | 86% | 1.3% |  |  |  |
| VQKIYV (Ac-VQKIYV-NH2) [4p] | 1% | 0.8% | weakly aggregative | weakly amyloidogenic | category of polymerization kinetics of 1p in the presence of peptide [5]: generally follow the kinetics of 1p alone; fluorescence intensity (plateau / at 100 minutes) of 1p in the presence of peptide, % of 1p alone [5]: 80%; maximum polymerization rate of 1p in the presence of peptide, % of 1p alone [5]: 50%; inhibitory effect on 1p (PHF6) polymerization (in words) [5]: inhibits the polymerization of 1p; also recorded: marked inhibitory effect; also recorded: with a weak inhibitory effect |
| KQIVYV (Ac-KQIVYV-NH2) [20p] | 75% | 1.3% |  |  |  |
| IQYVVK (Ac-IQYVVK-NH2) [8tp] | 78% | 17.5% |  |  |  |
| YIVVQK (Ac-YIVVQK-NH2) [13p] | 0% | 2.7% | weakly aggregative | weakly amyloidogenic | category of polymerization kinetics of 1p in the presence of peptide [5]: generally follow the kinetics of 1p alone; inhibitory effect on 1p (PHF6) polymerization (in words) [5]: without any inhibitory effect |
| Ac-VQIVYK-NH2 [1p, Ac-VQIVYK-NH2, reference compound] |  |  | self-aggregative | strong amyloidogenic | effect on cell growth (number and appearance of cells) [3]: the number of cells seemed to strongly decrease |
| VQVYKI (Ac-VQVYKI-NH2) [22p] | 34% | 3% |  |  |  |
| KVQIVY (Ac-KVQIVY-NH2) [10p] | 63% | 3.2% |  |  |  |
